# Assay results taken from IntAct's records for PubMed 9153189.
# B1: Tumor necrosis factor receptor superfamily member 14 (Homo sapiens), Q92956 (parent)
# chain: MEPPGDWGPPPWRSTPKTDVLRLVLYLTFLGAPCYAPALPSCKEDEYPVGSECCPKCSPGYRVKEACGELTGTVCEPCPPGTYIAHLNGLSKCLQCQMCDPAMGLRASRNCSRTENAVCGCSPGHFCIVQDGDHCAACRAYATSSPGQRVQKGGTESQDTLCQNCPPGTFSPNGTLEECQHQTKCSWLVTKAGAGTSSSHWVWWFLSGSLVIVIVCSTVGLIICVKRRKPRGDVVKVIVSVQRKRQEAEGEATVIEALQAPPDVTTVAVEETIPSFTGRSPNH
# B2: Tumor necrosis factor receptor superfamily member 14 (Homo sapiens), Q92956 (parent)
# chain: B1 chain
# partner: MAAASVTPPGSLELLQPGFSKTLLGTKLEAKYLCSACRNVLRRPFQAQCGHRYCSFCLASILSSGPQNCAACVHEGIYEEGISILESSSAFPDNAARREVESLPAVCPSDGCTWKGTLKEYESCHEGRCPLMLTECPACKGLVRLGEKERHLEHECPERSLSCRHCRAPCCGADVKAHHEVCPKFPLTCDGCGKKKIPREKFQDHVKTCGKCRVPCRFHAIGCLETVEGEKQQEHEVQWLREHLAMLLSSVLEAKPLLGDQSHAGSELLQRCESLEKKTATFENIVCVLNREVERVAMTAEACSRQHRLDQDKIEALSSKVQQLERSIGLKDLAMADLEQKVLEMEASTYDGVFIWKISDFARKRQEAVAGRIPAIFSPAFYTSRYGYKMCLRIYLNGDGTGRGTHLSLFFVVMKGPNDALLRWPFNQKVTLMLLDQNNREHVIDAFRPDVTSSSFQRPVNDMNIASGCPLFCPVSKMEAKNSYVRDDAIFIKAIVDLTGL
# Variants of: B1
# Details: with traf5_human TRAF5, O00463
# Sequence of traf5_human TRAF5, O00463 (O00463 whole entry): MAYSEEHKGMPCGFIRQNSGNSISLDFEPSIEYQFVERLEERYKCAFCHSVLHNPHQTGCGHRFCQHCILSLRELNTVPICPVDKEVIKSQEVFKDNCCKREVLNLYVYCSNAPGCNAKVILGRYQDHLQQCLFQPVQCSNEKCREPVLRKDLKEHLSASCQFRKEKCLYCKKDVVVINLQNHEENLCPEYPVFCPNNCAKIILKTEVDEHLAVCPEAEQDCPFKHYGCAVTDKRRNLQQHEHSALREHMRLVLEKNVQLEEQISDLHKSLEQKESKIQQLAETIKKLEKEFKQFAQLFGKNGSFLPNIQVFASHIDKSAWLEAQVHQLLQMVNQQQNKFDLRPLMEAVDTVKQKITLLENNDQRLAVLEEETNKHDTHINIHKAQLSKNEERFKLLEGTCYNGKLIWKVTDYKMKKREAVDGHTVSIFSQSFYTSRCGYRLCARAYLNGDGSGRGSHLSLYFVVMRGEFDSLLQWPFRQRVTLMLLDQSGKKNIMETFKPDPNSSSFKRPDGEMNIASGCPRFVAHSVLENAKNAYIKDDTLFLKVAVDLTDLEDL
row,effect of a mutation on the interaction,Variant
1,decreasing interaction,E271A

# Variants of: B2
# Details: with traf2_human TRAF2, Q12933
row,effect of a mutation on the interaction,Variant
1,decreasing interaction,E271A
